This is an account of results in patent US20070196374A1 (published 2007).

Assay [1] concerns the target T1, VEGF (human, UniProt P15692-4 27-191, limits assumed).
T1 construct: also called vascular endothelial growth factor; biotinylated VEGF
The assay can be described thus: BIAcore-2000 SPR. The procedure:
(§1) The VEGF-binding affinities of Fab fragments were calculated from association and dissociation rate constants measured using a BIAcore-2000™ surface plasmon resonance system (BIAcore, Inc., Piscataway, N.J.). A biosensor chip was activated for covalent coupling of VEGF using N-ethyl-N′-(3-dimethylaminopropyl)-carbodiimide hydrochloride (EDC) and N-hydroxysuccinimide (NHS) according to the supplier's (BIAcore, Inc., Piscataway, N.J.) instructions. VEGF was buffered exchanged into 20 mM sodium acetate, pH 4.8 and diluted toapproximately 50 μg/mL. An aliquot (35 μL) was injected at a flow rate of 2 μL/min to achieve approximately 700-1400 response units (RU) of coupled protein. Finally, 1 M ethanolamine was injected as a blocking agent.
(§2) For kinetics measurements, two-fold serial dilutions of Fab were injected in PBS/TWEEN™ buffer (0.05% TWEEN 20™ in phosphate buffered saline) at 25° C. at a flow rate of 10 μL/min. […] Equilibrium dissociation constants, Kd's from surface plasmon resonance (SPR) measurements were calculated as koff/kon.
Background: SPR reads the build-up and loss of mass on a sensor chip optically.

Assay [2] has as its target T1, VEGF. Description: BIAcore-2000 SPR, wt = Y0192. On the procedure:
as §1, §2

The target in a further assay is rhVEGF165 (human, UniProt P15692 27-191). Description: cell-based or functional assay.

Substitutions are numbered along the chain they refer to. In names and notes the source's numbering stands. A value given as a limit tells only on which side of the number the result lay.

As usually defined, the Kd is the concentration at which binding is half-saturated. Read a low Kd as a tighter complex.

B1: Y0238-3 (Fab, V domains shown)
VH: EVQLVESGGGLVQPGGSLRLSCAASGYTFTNYGINWVRQAPGKGLEWVGWINTYTGEPTYAADFKRRFTFSLDTSKSTAYLQMNSLRAEDTAVYYCAKYPYYYGTSHWYFDVWGQGTL
VL: DIQLTQSPSSLSASVGDRVTITCRANEQLSNYLNWYQQKPGKAPKVLIYFTSSLHSGVPSRFSGSGSGTDFTLTISSLQPEDFATYYCQQYSTVPWTFGQGTKVEIKR
notes: Soluble Fab from E. coli 34B8
Molecule B1 returned a Kd with VEGF [1] of 0.15 nM. The “Kd (wt)/Kd” value with VEGF [2] was ≥ 14 ratio.

B2: Y0313-1 (Fab, V domains shown)
VH: B1 VH with T28D, N31H, I34M
VL: B1 VL
notes: Y0243-1 with VH3 H101Y and S105T; soluble Fab
As to B2, in the assay with VEGF [2], the “Kd (wt)/Kd” value is ≥ 20 ratio. The “potency in the HuVEC assay relative to the wild-type Fab (Y0192)” value in the assay with rhVEGF165 was > 30 fold.
